# Assay results published in PMC12009402 (Scientific Reports, 2025).
# B1: hCCL5-K25S (ligand)
# chain: SPYSSDTTPCCFAYIARPLPRAHISEYFYTSGKCSNPAVVFVTRKNRQVCANPEKKWVREYINSLEMS
# Target: the molecule itself
# Assay: AUC
protein,measurement,value
B1,stoichiometry N,~200
